For this test, the target named is His-tagged BspC labelled with the Monolith His-Tag Labeling Kit RED-tris-NTA 2nd Generation (Streptococcus agalactiae). Nature of the test: MST; labelled His-tagged BspC constant at 10 nM, vimentin titrated 1:1 in 16 steps from 20 μM to 0 μM; standard capillaries, Monolith NT.115 Pico, 20% excitation power, 40% MST power; three independent experiments.

In the case of “vimentin purchased from Novus Biologicals (from UniProt P08670 1-466) (natural protein)”, the Kd – broadly, the free concentration of one partner at which half of the binding sites on the other are occupied at equilibrium, for simple one-to-one binding – was 3.39 µM.

For the origin of these results see PMC6586375.
